One molecule from patent US20250304624A1 (published 2025) can be followed below.

Positions of bridges follow the written chain, without caps; N, C: chain ends. Non-standard residues stand in square brackets, D forms with d. Groups on a side chain read outwards from the residue. *: point of attachment. PEG12 = NCCOCCOCCOCCOCCOCCOCCOCCOCCOCCOCCOCCOCCC(=O)O; Dip = N[C@H](C(=O)O)C(c1ccccc1)c1ccccc1; Palmitoyl = CCCCCCCCCCCCCCCC(=O)*; Isovaleryl = CC(C)CC(=O)*

This assay concerns the target T1, human ferroportin (SLC40A1) fused in frame with GFP, stably expressed in HEK293 cells (human, UniProt Q9NP59 1-571).
T1 sequence (looked up): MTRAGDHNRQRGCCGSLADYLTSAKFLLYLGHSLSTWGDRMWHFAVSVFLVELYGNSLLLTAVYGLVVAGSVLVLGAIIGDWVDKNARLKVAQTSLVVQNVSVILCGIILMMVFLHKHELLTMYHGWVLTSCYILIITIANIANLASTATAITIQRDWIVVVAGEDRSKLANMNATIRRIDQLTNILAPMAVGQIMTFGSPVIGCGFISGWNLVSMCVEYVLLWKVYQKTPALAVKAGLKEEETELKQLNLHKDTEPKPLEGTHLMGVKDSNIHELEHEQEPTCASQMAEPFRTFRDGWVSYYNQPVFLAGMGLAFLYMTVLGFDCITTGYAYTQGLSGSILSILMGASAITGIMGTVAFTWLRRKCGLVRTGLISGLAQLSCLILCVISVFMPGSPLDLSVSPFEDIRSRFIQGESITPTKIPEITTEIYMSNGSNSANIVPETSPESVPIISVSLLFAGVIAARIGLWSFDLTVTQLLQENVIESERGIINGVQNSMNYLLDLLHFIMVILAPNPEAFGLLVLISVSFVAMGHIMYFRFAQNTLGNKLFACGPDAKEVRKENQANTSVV
Briefly: cell-based or functional assay.

B1: Compd ID 130 (peptide)
peptide: Isovaleryl-DIH[Dip]PCI[dK]FK([PEG12-Palmitoyl])[dK]C-NH2
modifications: disulfide 6-12 (inferred)
Turning to B1, the “FPN IC50” value amounted to 69 nM.
